Experimental findings from paper PMC11039992, “Distinct functions for the paralogous RBM41 and U11/U12-65K proteins in the minor spliceosome” are described below.

As usually defined, the Kd is a measure of binding affinity in units of concentration.

In series [1] the target is T1, RBM41 RRM (C-terminal fragment) (Homo sapiens, UniProt Q96IZ5 267-413).
T1 sequence: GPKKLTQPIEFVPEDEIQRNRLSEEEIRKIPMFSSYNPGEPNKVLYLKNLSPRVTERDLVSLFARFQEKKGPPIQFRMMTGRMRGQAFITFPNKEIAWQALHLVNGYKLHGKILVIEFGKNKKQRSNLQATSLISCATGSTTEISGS
Description: EMSA; 20 mM HEPES-KOH pH 8.0, 100 mM KCl, 1.5 mM MgCl2, 5% glycerol, 0.1 ug/ul BSA, 1 ug/ul yeast RNA, 1 U/ul RiboLock; 5 nM RNA, 0.25-25 uM protein; 1 h on ice, gel. As to conditions: protein: recombinant; tags: GST tag removed with PreScission protease (untagged); label: 5' 32P; hairpin. For orientation: Mobility shift assays separate free from complexed probe on a gel.

The target in series [2] is T2, U11/U12-65K C-terminal RRM (65K C-RRM) (Homo sapiens, UniProt Q96LT9 380-517).
T2 sequence: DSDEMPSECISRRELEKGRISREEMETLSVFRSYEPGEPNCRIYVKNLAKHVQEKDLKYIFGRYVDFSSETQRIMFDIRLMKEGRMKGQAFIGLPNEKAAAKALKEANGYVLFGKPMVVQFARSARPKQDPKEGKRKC
The description is as above. As to conditions: protein: recombinant; tags: GST tag removed with PreScission protease (untagged); label: 5' 32P; hairpin.

As to GGGCGGAUGAAACGCCC (structured_RNA) [U12comp control hairpin], the binding result in series [1] and in series [2] was “no binding” throughout.
Take CCCGCCUACUUUGCGGG (structured_RNA) [U12-(109-125) hairpin]: the dissociation constant Kd in series [1] came to 2140 nM; in series [2], 1040 nM.
Consider GCCACCUACUUCGUGGC (structured_RNA) [U6atac-(92-108) hairpin], for which the results for the Kd in series [1] and in series [2] were 3780 nM and 2070 nM, respectively.
